Consider four substances from paper PMC3858840.

Where two headings read alike, the source gives them in different places.

For test [1], the target named is FERM domain of human moesin (residues 1–346) (human) (UniProt P26038). Kind of test: other fluorescence titration.
For test [2], the target named is TMR-CLS: TMR-labeled CLS_S329C (transmembrane and cytoplasmic domains of human L-selectin), in liposomes (human). Kind of test: other fluorescence titration.
Test [3] has the same target. Description: other fluorescence titration. The source holds these as a separate data set.
For test [4] the target is unchanged. Kind of test: other fluorescence titration. This is another data set of the same source.
The target is the same in test [5]. Kind of test: other fluorescence titration. This is another data set of the same source.
The target is the same in test [6]. Description: other fluorescence titration. This is another data set of the same source.
Test [7] deals with TMR-ARR18, ARR18 with the N-terminal residue changed to cysteine and labelled with tetramethylrhodamine-5-maleimide (human). Kind of test: other fluorescence titration.
Test [8] addresses TMR-CLS: TMR-labeled CLS_S329C (transmembrane and cytoplasmic domains of human L-selectin), in liposomes (human). Kind of test: other fluorescence titration. The source holds these as a separate data set.
Test [9] concerns the target moesin-FERM/TMR-CLS complex in 15% POPS/85% POPC liposome (human) (UniProt P26038). Description: other fluorescence titration.
Test [10] has as its target L-selectin cytoplasmic peptide cytoplasmic domain (Homo sapiens) (UniProt P14151). The settings on record: cited from earlier work.

Sequence of FERM domain of human moesin (residues 1–346) (P26038 1-346): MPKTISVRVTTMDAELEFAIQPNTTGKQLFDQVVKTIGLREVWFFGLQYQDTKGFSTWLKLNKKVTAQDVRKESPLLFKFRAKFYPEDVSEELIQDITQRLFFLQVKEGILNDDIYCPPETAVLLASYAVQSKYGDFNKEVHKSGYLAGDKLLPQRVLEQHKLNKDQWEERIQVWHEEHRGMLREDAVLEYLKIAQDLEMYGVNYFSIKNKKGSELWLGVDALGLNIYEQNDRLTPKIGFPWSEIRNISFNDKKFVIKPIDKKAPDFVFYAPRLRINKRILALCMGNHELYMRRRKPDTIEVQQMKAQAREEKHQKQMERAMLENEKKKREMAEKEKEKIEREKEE
Sequence of moesin N-terminal fragment 1-296 (P26038 1-296): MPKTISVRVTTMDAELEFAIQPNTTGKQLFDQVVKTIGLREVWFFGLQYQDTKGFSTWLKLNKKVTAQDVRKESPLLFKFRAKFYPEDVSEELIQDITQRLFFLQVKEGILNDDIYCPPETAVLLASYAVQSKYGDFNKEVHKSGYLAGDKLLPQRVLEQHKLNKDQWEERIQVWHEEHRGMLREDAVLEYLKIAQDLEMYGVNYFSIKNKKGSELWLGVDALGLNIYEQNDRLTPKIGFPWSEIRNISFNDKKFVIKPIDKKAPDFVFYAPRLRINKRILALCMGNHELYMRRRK
Sequence of FERM domain of human moesin (residues 1–346) (human) (P26038 1-346): as the sequence (P26038 1-346) above

With “ARR18, cytoplasmic domain peptide of human L-selectin (residues Ala317–Tyr334)”, the Kd (usually the constant that tells how readily two partners part at equilibrium) in [1] was 196 nM.

“FERM domain of human moesin (residues 1–346) (from UniProt P26038 1-346) (domain or fragment)”: the dissociation constant (Kd) in test [2] is 133 nM; in test [3] it was 74 nM; in [4], 67 nM; in test [5], 70 nM; in test [6], 96 nM; in test [7], 214 nM. Further, the Kd in [8] was 302 nM.

As for “calmodulin (CaM), wild type (from UniProt P0DP23 1-149) (natural protein)”, the equilibrium dissociation constant (Kd) in test [9] worked out at 800 nM.

As to “moesin N-terminal fragment 1-296 (from UniProt P26038)”, the dissociation constant Kd in [10] was 40 nM.
